Test results published in the supplement of paper PMC12764529.
± gives the half width of the 95% confidence interval.

Key:
[1] = folding stability dG unfold from chymotrypsin proteolysis; higher = more stable
Experimental: (§1)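 Folding stability of de novo designed mini-proteins (<80 aa, no Cys; designed by TrROS, TrMRF, ProteinMPNN and the joint model) was measured by cDNA display proteolysis with trypsin and chymotrypsin. Each protease was used at 11 concentrations in a threefold dilution series plus a no-protease condition. K50 was inferred by Bayesian fitting of sequencing counts, and dG unfold was derived against a sequence-predicted unfolded-state K50 (Tsuboyama et al. method). Sequences shown include variable-length N-terminal GS-type padding (SAGGSAGG...) inside a display construct carrying a PA tag. Rows were kept only if the AF2 dimer inter-PAE was >15, to exclude likely homo-oligomers.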

[2] = folding stability dG unfold (combined trypsin and chymotrypsin); higher = more stable
Experimental: as §1

MPSVTLPVTLVLDTRRPDGRPLTPEQVRALAEAAVRELAEATGVDVEADVTVTPLGPEGRAVVDVVVTVRPS [r1_231_TrMRF]
folding stability dG unfold [1]: 0.746 ± 0.1 kcal/mol | folding stability dG unfold [2]: 0.201 ± 0.14 kcal/mol

MTEKKEESLGEKKRITTTKPQEDGNPVVTERIIDPNGTIEKVIVKKSSPNKPTTEELPPFSTSNKEIVEKLS [r1_301_JUSTAS]
folding stability dG unfold [1]: -0.691 ± 0.14 kcal/mol | folding stability dG unfold [2]: -0.821 ± 0.4 kcal/mol

MTTETLEEEEIPEEGIRIETVRTTDASGKPSTETVVTYEEVPLEPENTAPPVKFDDKGKRYNPGIGLEGLDS [r1_270_JUSTAS]
folding stability dG unfold [1]: -0.664 ± 0.24 kcal/mol | folding stability dG unfold [2]: < -1 kcal/mol

NIRFPDGREIEIPPEPGEEYEIMLPNGPEIKIKKIKYENGEPTIEIERKDGGKKEHEMPPNQPDQILDAIRS [r1_66_TrROS]
folding stability dG unfold [1]: 0.421 ± 0.051 kcal/mol | folding stability dG unfold [2]: 0.0319 ± 0.29 kcal/mol

NYRVEIDDMELFPAPPGQEIRIPLKVEDDGQEHELEEIQVNPDDGYITMKVKIEPDGEPKEFTITIPIPPGS [r1_47_TrROS]
folding stability dG unfold [1]: 0.158 ± 0.52 kcal/mol

RTISIDEIREKLGMDPDDLKNMPMEEIADEIRDELPPGRAKGVKISPNEDDGMWTITVKYKNGRPVEITIDS [r1_340_TrROS]
folding stability dG unfold [1]: 0.671 ± 0.16 kcal/mol | folding stability dG unfold [2]: 0.156 ± 0.37 kcal/mol

SADTLTVSDLMHKLMEEERKKNPEPWSPEDMQEWAKTAARKLADKEGIPIKDVEVEPTDGYPSITVKVPSAG [r14_147_TrROS]
folding stability dG unfold [1]: -0.691 ± 0.73 kcal/mol | folding stability dG unfold [2]: < -1 kcal/mol

SAGATESETFALPGGEEVTVTTTYTPLPGDALRTTVTTWTTTLGPSGPAVTTATTTTTYPPELAAAGASAGG [r19_63_JUSTAS]
folding stability dG unfold [1]: 0.0387 ± 0.14 kcal/mol | folding stability dG unfold [2]: -0.807 ± 0.24 kcal/mol

SAGAVSTFENSNPSISLEELKEKIEEKLGIELVELKKVEDVPGGLKYEIVVPKIKGEKPFSAEEIAKLLSAG [r5_550_JUSTAS]
folding stability dG unfold [1]: -0.0356 ± 0.5 kcal/mol | folding stability dG unfold [2]: -0.434 ± 0.56 kcal/mol

SAGDISPSDPVTVRVEVEKDPNSKSTLVRVDEETPTGRRLERRIPADGPVVVTEREPASGATRVTVEPASAG [r5_55_JUSTAS]
folding stability dG unfold [1]: 0.00901 ± 0.071 kcal/mol | folding stability dG unfold [2]: -0.563 ± 0.11 kcal/mol

SAGDWIREAIKKAGYDNVEIEEIQPNPNGGVSIVIQPSPGMPREQQRRAQEEIVDALREESPDFKIHIHSAG [r5_101_TrROS]
folding stability dG unfold [1]: 0.584 ± 0.087 kcal/mol | folding stability dG unfold [2]: 0.192 ± 0.26 kcal/mol

SAGEGSRSPGVVLHVTTPTEPLVVREPVAPDEDPEAVLERLAAEVRAALGPDTTVSGEVLSPAELARAASAG [r5_583_JUSTAS]
folding stability dG unfold [1]: -0.465 ± 0.18 kcal/mol | folding stability dG unfold [2]: -0.738 ± 0.23 kcal/mol

SAGEVEKITLTIVVEDPNMTLEEILKKALEALGLKEEDVEVKIVSIKEETLPDGRKLTVIEVEITVPKPSAG [r5_528_TrROS_Hall]
folding stability dG unfold [1]: 3.43 ± 0.26 kcal/mol

SAGEYKVEEKDGKLYVTYPNGEKKEVEVKPAPPPVVTIKVKSVEELKALAEELNLEITEISEDTVVVKFSAG [r5_328_TrROS_Hall]
folding stability dG unfold [1]: 0.0799 ± 0.38 kcal/mol | folding stability dG unfold [2]: -0.643 ± 0.62 kcal/mol

SAGGAGQRVVLSSDKSLEDLEKLREENPDVSIEVTEINKLEPVKPENGGLEEVPSEIVAELTPGERRSAGGS [r8_172_JUSTAS]
folding stability dG unfold [1]: 0.401 ± 0.051 kcal/mol | folding stability dG unfold [2]: -0.0394 ± 0.076 kcal/mol

SAGGAIGPEEAERLAQEIADRLAAEFREAEPDVEVEVEAEVFPPEGVIRVRPRLPDGRLLAEVTFPVGSAGG [r13_247_TrMRF]
folding stability dG unfold [1]: 0.498 ± 0.041 kcal/mol | folding stability dG unfold [2]: 0.0873 ± 0.067 kcal/mol

SAGGDKLGKPLGGKPVTFDISKEELSYNPSNGTWSKSVVTTPRTVFYPPDAEPDPAVFASGAGSVTLASAGG [r13_753_JUSTAS]
folding stability dG unfold [1]: 0.281 ± 0.091 kcal/mol | folding stability dG unfold [2]: -0.184 ± 0.077 kcal/mol

SAGGEEPKRKTVEVPAGQPISELLDALKQYDEVQIRMGNGEEHEIPPNDPPDLEDLPLPPGNTFEIEVSAGG [r13_399_TrROS]
folding stability dG unfold [1]: -0.126 ± 0.12 kcal/mol | folding stability dG unfold [2]: < -1 kcal/mol

SAGGFKIERERDPDNGIRKIEFRFPDNGYRVKATINPDNDKIHIWGPNPAIREALPELGITNVEVEPWSAGG [r13_511_TrROS]
folding stability dG unfold [1]: -0.811 ± 0.78 kcal/mol | folding stability dG unfold [2]: < -1 kcal/mol

SAGGGAMLVGETTTSKWIEKTIRNENGEVETKKVKVTTKPVTYKLPDGTLATETKVTIIYPDGSTKEESAGG [r13_113_JUSTAS]
folding stability dG unfold [1]: 0.103 ± 0.21 kcal/mol | folding stability dG unfold [2]: -0.181 ± 0.31 kcal/mol

SAGGGMEEVAKKLGVPEDARLEVLKVERYYYTREVRDPLFEEGKPVGEKIIPRPYYSEKVDYKLFDKPSAGG [r13_482_JUSTAS]
folding stability dG unfold [1]: -0.288 ± 0.32 kcal/mol | folding stability dG unfold [2]: < -1 kcal/mol

SAGGGMKTSKVSTSTTTTTVPGTGAPVTVEVTSTTTTFGPNGPAVVTTTSLTYDEAGTPTTTTTTTLSAGGS [r16_200_JUSTAS]
folding stability dG unfold [1]: 0.46 ± 0.11 kcal/mol | folding stability dG unfold [2]: -0.133 ± 0.13 kcal/mol

SAGGGSMVEKTISTTDPKYVKILKKLEEAPEDEVVTIKEPNKDIEVLSFDKVDDNYKLLMKLPPSILSAGGS [r16_404_JUSTAS]
folding stability dG unfold [1]: -0.454 ± 0.38 kcal/mol | folding stability dG unfold [2]: -0.773 ± 0.46 kcal/mol

SAGGMRFRVRLFRPGRWLPPREVEPGAEAALRELPADVPFVVIEFDDPRGRRRVFFRSPEELRRAVAASAGG [r13_299_TrMRF]
folding stability dG unfold [1]: 0.379 ± 0.66 kcal/mol

SAGGSAGGSAGGAEELLENGRLRIEWPNGRTHTIDLDDGKIEPPPGFPPDNIRRVEIVPPSAGGSAGGSAGG [r7_566_TrROS]
folding stability dG unfold [1]: 0.444 ± 0.24 kcal/mol

SAGGSAGGSAGGNIVDRLQERFPNFPPKSVDVKMNPNGNRSVDIKFDGPPEMRDALLELSAGGSAGGSAGGS [r10_1089_TrROS]
folding stability dG unfold [1]: 0.128 ± 0.059 kcal/mol

SAGGSAVKITVEEREIIVPPEEDPLAENNPGIVVKKKTVKYEKEMTPEEKEKFLKEIEEKTGIKIISAGGSA [r15_347_JUSTAS]
folding stability dG unfold [1]: -0.162 ± 0.24 kcal/mol

SAGGSAVTAEWILDHMRDMGMPEEDVKIDDVQLEREPDKVVIRIEITMRHPNDGKQRRMDMEIPLPSAGGSA [r15_863_TrROS]
folding stability dG unfold [1]: -0.164 ± 0.34 kcal/mol

SAMKVIVKIKIYDKNGKLVKEIEIPAEILEKDPEKLKELAEKLAEELKKKGYKVEIELVEVVPVEEEEESAG [r14_972_TrROS_Hall]
folding stability dG unfold [1]: 4.5 ± 0.41 kcal/mol

SAMPPGAIVKVKIISKERRIDNELGVEVVGYTEKEEDVKVLEVKEPGEKVELKLEIPNLPEGSELELGFSAG [r14_412_TrMRF]
folding stability dG unfold [2]: < -1 kcal/mol

SAMVVPVELEGPVGDLDELKEKTKKEVEEELGLPDDLENITVTVEKIEPLPDPEGKPVTTRIKLKITVKSAG [r14_736_JUSTAS]
folding stability dG unfold [2]: < -1 kcal/mol

SAPDLGSGTLLTTESRAVTDPEGNTTWVTRPVVVPVEREYFVTDPETGEWAPLSTYDPATGTLHDPNHHSAG [r14_122_JUSTAS]
folding stability dG unfold [2]: < -1 kcal/mol

SARLFTIRIQGPPEQLKDALQEEFDMEVNIEPEPNGSTTITFELPPNNYDRFEEALEQLPGFPIEIEPVSAG [r14_521_TrROS]
folding stability dG unfold [2]: < -1 kcal/mol

SARYKRNPDGKPRREEPVPPKPPTIEIPIPFNMPPDDPEMMKRFAEMIADMLADEHGLPPNVPIHISMNSAG [r14_453_TrROS]
folding stability dG unfold [2]: < -1 kcal/mol

SATLRDLIKELGFPMDIEHDGDSVKITMRNPDDPNPGQEQTFEIPPPNGKPLKFKIRMRNNGIQEIEPESAG [r14_401_TrROS]
folding stability dG unfold [2]: < -1 kcal/mol

SATVTVETTLSDVDTLLAAAEAAGWAVTRTQEPSSPLRRATITAPLPDGTAAPVTVTVDPASGRAVLVGSAG [r14_169_JUSTAS]
folding stability dG unfold [2]: < -1 kcal/mol

SKKFQIYNPDEGQPFQIEVDPEDGKVTVEWPNGEEEEAPVKDIEIDPGHGWIKIKHPGKEVTIRIPPDMFSA [r9_325_TrROS]
folding stability dG unfold [1]: 0.00862 ± 0.44 kcal/mol

SKVDIDVERDPGNGHYEYTVRNPNNGYDIKVRIADMDPEHGPIQVEIEPLDDGKKVHYPMPWDDIKDLIKSA [r9_1221_TrROS]
folding stability dG unfold [2]: < -1 kcal/mol

SMPYLVRVLAELPDGELLGEAEAEVLPGEELVFSDPLPVRVRAVIYDPETDEPREVEADGRVGVLVVPVESA [r9_272_TrMRF]
folding stability dG unfold [2]: < -1 kcal/mol

SMTYTVTKESSVSPLPDGSPVTSTTTTVTAPTEPVTVTTSTSVTPLSTGTSTTTSTTTTTVPPDDPLAASSA [r9_34_JUSTAS]
folding stability dG unfold [2]: < -1 kcal/mol

SMYYVATVIRKKKDGGPYLGPEVRIVESPEEAEEIALEPAPERDYVVELKVEEVPLEELENPEKIKELLESA [r9_864_TrMRF]
folding stability dG unfold [2]: < -1 kcal/mol

SNFYFTIEIERPDPNGEEKKIEITIPMERINQELQEEHGMESPQEAQEYFAKEIAEKFDENGYKVKIEPFSA [r9_868_TrROS]
folding stability dG unfold [2]: -0.316 ± 0.52 kcal/mol

SPAIVLATSDPSTRRRTVFVAQSHPPGPAVPDLGFDIPIGDNLYLGASISVSPSGPVNIDSIIVGPPDSLSA [r9_780_TrMRF]
folding stability dG unfold [2]: < -1 kcal/mol

SPKIKITEVEPNPGNMEKRTIELPNRPITLYWPPENGYYRVKIEDPDNNKERQIMVPPGQPPEEIAKDLLSA [r9_522_TrROS]
folding stability dG unfold [2]: < -1 kcal/mol

SSFKLYKRPDGSPYLTAPVPEKNLKSALDPSTGVPYIATTPGGELGALSLLADSLEELLKLPPLTFTKPGSA [r9_205_JUSTAS]
folding stability dG unfold [2]: < -1 kcal/mol

SSFKTKITILEERELEPVPDRNGTPNPVRLVTIAVTNLGPESVSPEVVEKVKKEVEEKFKEEGIPVEIKDES [r1_305_JUSTAS]
folding stability dG unfold [2]: < -1 kcal/mol

SSVSFDPATGTTTVTTTTPTGPDSPVLTTTTTTLTTNPDGTVTTTTTTTTTTVAPAAPLLTPANLALRAALS [r1_4_JUSTAS]
folding stability dG unfold [2]: < -1 kcal/mol
